Patent publication US20230374148A1, “BINDING MOLECULES THAT MULTIMERISE CD45” (UCB BIOPHARMA SRL, priority 2020, published 2023)

Assays:
M1 macrophages = experiment: Caspase-3/7 induction, IncuCyte, M1; assay type: cell-based, human; conditions: over 6 days, BYbe 250-2 nM, Camptothecin, Staurosporine 5 μM
Experimental: (§1) Human PBMC derived from blood leukocyte platelet-apheresis cones (NHSBT Oxford) were banked as frozen aliquots. Prior to an assay being performed, 2 vials of frozen cells, each containing 5×10^7 cells in 1 ml, were thawed in a 37° C. water bath and then added to 50 ml complete media (RPMI 1640+2 mM GlutaMAX+1% Pen/Strep, all previous supplied by Invitrogen, +10% Fetal Bovine Serum (FBS), Sigma Aldrich). Cells were spun (500 g, 5 min, at RT) and re-suspended in 30 ml complete media to wash and spun again. Cells were resuspended in 20 ml MACS buffer (PBS, pH 7.2, 0.5% bovine serum albumin (BSA), and 2 mM EDTA, Sigma Aldrich) and counted on a ChemoMetec NucleoCounter NC-3000 to determine concentration and viability. PBMCs from one donor (UCB-Cones 802) was used in this assay. Monocyte isolation was performed using the Pan Monocyte Isolation Kit (Miltenyi Biotec, cat no. 130-096-537) and LS columns (Miltenyi Biotec, cat no 130-042-401) according to manufacturer's instructions. 100 μl of cells were removed and stored on ice to check monocyte purity post isolation. Isolated cells were stained with BV421 mouse anti-human CD14 (BD Biosciences, cat no. 563743) to check for purity of monocytes using FACS. M-CSF (Sigma Aldrich, cat no. SRP3110) and GM-CSF (R&D Systems, cat no. 215-GM/CF) were prepared at 100 μg/ml. Cells were prepared in M1 media (complete media+50 ng/ml GM-CSF) or M2 media (complete media+50 ng/ml M-CSF) at a concentration of 2.5×10^5 cells/ml. 200 μl cells were plated into two Corning 96 well Black polystyrene microplates (Sigma Aldrich) and incubated at 37° C., 5% CO2. Following a 3-day incubation at 37° C., 5% CO2, the plate was spun (500 g, 5 min, RT), buffer was aspirated, the cells were washed once with PBS and then resuspended in 200 μL of M1 media or M2 media. […] The caspase dye was measured with the green laser (350 ms) and the cytotox dye was measured with a red laser (650 ms). The green dye signal was analysed using Incucyte® Zoom2016B. […]

M2 macrophages = experiment: Caspase-3/7 induction, IncuCyte, M2; assay type: cell-based, human; conditions: over 6 days, BYbe 250-2 nM, Camptothecin, Staurosporine 5 μM
Experimental: as §1

CD45 ECD = biological target: T1, CD45 ECD (Homo sapiens, UniProt P08575); experiment: Mass photometry of mixture of CD45 ECD and BYbe; assay type: binding; conditions: for Theoretical mass (kDa): based on observed masses of 62 and 76 kDa
T1 construct: extracellular domain of CD45 (UniProtKB—P08575, residue positions 225-573); TEV cleavage site (C); 10-His tag (C); made in house; host or cells: HEK293
T1 sequence (P08575 225-573): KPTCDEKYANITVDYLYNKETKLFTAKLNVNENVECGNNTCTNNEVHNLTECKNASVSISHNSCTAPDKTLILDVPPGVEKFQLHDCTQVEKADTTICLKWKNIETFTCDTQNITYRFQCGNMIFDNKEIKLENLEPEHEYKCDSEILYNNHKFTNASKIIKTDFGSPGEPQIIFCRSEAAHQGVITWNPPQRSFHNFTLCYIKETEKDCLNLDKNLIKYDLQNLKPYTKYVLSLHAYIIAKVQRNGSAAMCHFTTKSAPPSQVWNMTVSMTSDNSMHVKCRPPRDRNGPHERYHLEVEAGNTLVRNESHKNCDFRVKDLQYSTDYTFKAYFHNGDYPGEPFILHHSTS
Experimental: Data were acquired on a RefeynOneMP mass photometer (Refeyn Ltd, Oxford, UK) using AcquireMP (Refeyn Ltd, v2.2.1) software and images were processed and analysed using DiscoverMP (v2.3.dev12) software.
Measurements were performed using clean glass coverslips (High Precision coverslips, No. 1.5, 24×50 mm, Marienfeld) mounted with silicon gaskets (CultureWell™ Reusable Gaskets, Grace biolabs) cut in to 2×2 well sections. Protein stocks were diluted directly in Dulbecco's Phosphate-Buffered Saline (DPBS, ThermoFisher). Typical working concentrations of protein complexes were 1-100 nM, depending on the dissociation characteristics of the protein complexes.
The instrument lens was cleaned with Iso-propyl alcohol (IPA), allowed to dry and a drop of Olympus Low Auto Fluorescence Immersion Oil (NC0297589, ThermoFisher) placed on the lens prior to positioning the microscope coverslip with sample in the light stage. To find focus, 15 μl of fresh DPBS was pipetted into a silicone well, the focal position was identified and secured in place with an autofocus system based on total internal reflection for the entire measurement. For each acquisition, 5 μl of diluted protein was introduced into the well, mixed thoroughly (before autofocus stabilization), and movies of 90 s duration recorded. Each sample was measured once, with a new well and buffer used for each measurement. The mixture of CD45 ECD and 4133-6294 BYbe was not pre-incubated and therefore complexing occurred when the 2 proteins were added into the well.

B1: 4133-6294 BYbe: anti-CD45 BYbe (Fab-scFv): 4133 Fab HC-G4S linker-6294 scFv heavy chain paired with 4133 light chain (antibody)
heavy: QEQLVESGGGLVQPEGSLTLTCTASGFSFSGNYYMCWVRQAPGKGLEWIGCLYTGSSGSTYYASWAKGRFTISKTSSTTVTLQMTSLTAADTATYFCARDLGYEIDGYGGLWGQGTLVTVSSGQPKAPSVFPLAPCCGDTPSSTVTLGCLVKGYLPEPVTVTWNSGTLTNGVRTFPSVRQSSGLYSLSSVVSVTSSSQPVTCNVAHPATNTKVDKTVAPSTCSKPGGGGSGGGGSEVQLVESGAELARPGASVKMSCKASGYTFTSYTMHWVKQRPGQCLEWIGYINPSSGYTEYNQKFKDKTTLTADKSSSTAYLQLSSLTSEDSAVYYCARVGDGFYPSWLAYWGQGTLVTVSSGGGGSGGGGSGGGGSGGGGSDIQMTQSPKFLLVSAGDRVTITCKASQSVRNDVAWYQQKPGQSPKLLIFYASKRYTGVPDRFTGSGYGTDFTFTISTVQAEDLAVYFCQQDYSSPTTFGCGTKLEIK
light: AQVLTQTPSPVSAVVGGTVSISCQASQSVYNNNNLSWYQQKPGQPPKLLIYDASKLASGVPSRFKGSGSGTQFTLTISGVQCDDAATYYCLGGYYSSGWYFAFGGGTKVVVKRTPVAPTVLIFPPAADQVATGTVTIVCVANKYFPDVTVTWEVDGTTQTTGIENSKTPQNSADCTYNLSSTLTLTSTQYNSHKEYTCKVTQGTTSVVQSFNRGDC
M1 macrophages
  levels of Caspase-3/7: in-line with NegCtrl BYbe-treated and untreated macrophages
M2 macrophages
  levels of Caspase-3/7: in-line with NegCtrl BYbe-treated and untreated macrophages
CD45 ECD; 1× (CD45 + BYbe) complex in mixture of CD45 ECD and 4133-6294 BYbe
  Observed mass (kDa): 136 kDa
CD45 ECD; 1× (CD45 + BYbe)
  Theoretical mass (kDa): 138 kDa
CD45 ECD; 2× (CD45 + BYbe) complex in mixture of CD45 ECD and 4133-6294 BYbe
  Observed mass (kDa): 274 kDa
CD45 ECD; 2× (CD45 + BYbe)
  Theoretical mass (kDa): 276 kDa
CD45 ECD; 3× (CD45 + BYbe) complex in mixture of CD45 ECD and 4133-6294 BYbe
  Observed mass (kDa): 415 kDa
CD45 ECD; 3× (CD45 + BYbe)
  Theoretical mass (kDa): 414 kDa
CD45 ECD; 4× (CD45 + BYbe) complex in mixture of CD45 ECD and 4133-6294 BYbe
  Observed mass (kDa): 555 kDa
CD45 ECD; 4× (CD45 + BYbe)
  Theoretical mass (kDa): 552 kDa
